Laboratory results from PMC6197822.

Target: Thr315Ala variant of the catalytic domain of ICR^Mc (ICR^Mccat^Thr315Ala) (Moraxella catarrhalis strain BC1)
Test: crystal structure

For “Thr315Ala variant of the catalytic domain of ICR^Mc (ICR^Mccat^Thr315Ala) (domain or fragment)”, the stoichiometry N was 2.
